In publication PMC12881460, “Biophysical characterization of Eag chaperones suggests the mechanism of effector transmembrane domain release” (Nature Communications, 2026):
Positions count from the first letter of the chain named. Names and notes keep the numbering of the source.

B1: EagT6 I24F (natural protein)
chain: MTLYRLHEADLEIPDAWQDQSINFFKLPASGPAREASFVISRDASQGDAPFADYVARQLENAEKQLPGFKLHKRWDINIHGHAAVLLDYQWQREGRDLMLRQVFIERRPAVLITTLTTTPADLPHHEPAWKQAMQTLVPRPTPS
B2: EagT6 L66A (natural protein)
chain: B1 chain with F24I, L66A
notes: also called EagT6-TMD L66A (in complex)
B3: EagT6 S41A (natural protein)
chain: B1 chain with F24I, S41A
B4: EagT6 Q58A (natural protein)
chain: B1 chain with F24I, Q58A
notes: also called EagT6-TMD Q58A (in complex)
B5: Tse6(1–61) (domain or fragment)
chain: MDAQAAARLGDEIAHGFGVAAMVAGAVAGALIGAAVVAATAATGGLAAVILAGSIAAGGLS
notes: not shown: His6, C-terminal, kept
B6: EagT6 Q102A (natural protein)
chain: B1 chain with F24I, Q102A

Legend:
[1] = biological target: SciW Q58A (Salmonella Typhimurium); assay: dynamic light scattering; 50 mM Tris pH 8.0, 250 mM NaCl, 1 mM BME, 25 °C, 0.5 mg/ml protein
[2] = biological target: Rhs1(1–59) (Salmonella Typhimurium); assay: stopped-flow fluorescence unfolding kinetics; co-purified complex or apo chaperone, 10 μM diluted 1/10 into GdmCl in 50 mM Tris, 250 mM NaCl, 1 mM BME, 20 °C; rate extrapolated to 0 M GdmCl
[3] = biological target: SciW Q106A (Salmonella Typhimurium); assay: dynamic light scattering; 50 mM Tris pH 8.0, 250 mM NaCl, 1 mM BME, 25 °C, 0.5 mg/ml protein
[4] = biological target: Tse6(1–61) (Pseudomonas aeruginosa) (UniProt Q9I739); assay: GdmCl denaturation followed by steady-state tryptophan fluorescence (unfolding free energy of the co-purified complex against the apo chaperone); 1 μM protein dimer, 25 mM Tris pH 7.0, GdmCl series, room temperature, 1 h equilibration; KTMD calculated by Eq. (7) from ΔG° of unfolding extrapolated to 0 M denaturant
[5] = biological target: SciW (Salmonella Typhimurium); assay: dynamic light scattering; 50 mM Tris pH 8.0, 250 mM NaCl, 1 mM BME, 25 °C, 0.5 mg/ml protein
[6] = biological target: SciW S41A (Salmonella Typhimurium); assay: as above
[7] = biological target: SciW I25F (Salmonella Typhimurium); assay: as above
[8] = biological target: the molecule itself; assay: as above
EagT6 Q58A = biological target: B4; assay: GdmCl denaturation followed by steady-state tryptophan fluorescence (unfolding free energy of the co-purified complex against the apo chaperone); 1 μM protein dimer, 25 mM Tris pH 7.0, GdmCl series, room temperature, 1 h equilibration; KTMD calculated by Eq. (7) from ΔG° of unfolding extrapolated to 0 M denaturant; conditions: both partners purified

SciW Q58A (natural protein) gave a stoichiometry N [1] of 2 and a lifetime of the complex [2] of 0.267 h.

SciW Q106A (natural protein) was tested, and the stoichiometry N [3] was 2.

Molecule “EagT6 L66A (from UniProt Q9I738) (natural protein)” has a Ka [4] of less than 1e+06 M⁻¹.

Molecule SciW (natural protein) has a stoichiometry N [5] of 2 and a lifetime of the complex [2] of 15 h.

SciW S41A (natural protein) was tested, and the stoichiometry N [6] was 2.

In the case of SciW I25F (natural protein), the stoichiometry N [7] is reported as 2.

SciW L66A (natural protein) gave a lifetime of the complex [2] of 2 h.

With B1 the “stoichiometry N” value [8] was 2.

In the case of B2, the “stoichiometry N” value [8] is reported as 2.

In the case of B3, the “stoichiometry N” value [8] is reported as 2.

For B4, the “stoichiometry N” value [8] was 2.

In the case of B5, the Kd (EagT6 Q58A) is reported as roughly 0.03 nM.

With B6 the “stoichiometry N” value [8] was 2.
